Columns and labels:
[1] = target: Human C3b (plasma-purified) (human, UniProt P01024 23-667; P01024 749-1663); test: SPR, amine-coupled C3b on C1 chip, equilibrium 1:1 fit
[2] = target: T1, Human complement factor H purified from plasma (human, UniProt P08603 19-1231); test: not stated there (SPR in the examples)
T1 construct: also called Plasma CFH; plasma-purified CFH

[3] = target: T1, Human complement factor H purified from …; test: SPR
[4] = target: T1, Human complement factor H purified from …; test: SPR, same assay as for PspCN (37-140)

Chain of Human C3b (plasma-purified) (P01024 23-667 limits assumed, chain 1 of 2): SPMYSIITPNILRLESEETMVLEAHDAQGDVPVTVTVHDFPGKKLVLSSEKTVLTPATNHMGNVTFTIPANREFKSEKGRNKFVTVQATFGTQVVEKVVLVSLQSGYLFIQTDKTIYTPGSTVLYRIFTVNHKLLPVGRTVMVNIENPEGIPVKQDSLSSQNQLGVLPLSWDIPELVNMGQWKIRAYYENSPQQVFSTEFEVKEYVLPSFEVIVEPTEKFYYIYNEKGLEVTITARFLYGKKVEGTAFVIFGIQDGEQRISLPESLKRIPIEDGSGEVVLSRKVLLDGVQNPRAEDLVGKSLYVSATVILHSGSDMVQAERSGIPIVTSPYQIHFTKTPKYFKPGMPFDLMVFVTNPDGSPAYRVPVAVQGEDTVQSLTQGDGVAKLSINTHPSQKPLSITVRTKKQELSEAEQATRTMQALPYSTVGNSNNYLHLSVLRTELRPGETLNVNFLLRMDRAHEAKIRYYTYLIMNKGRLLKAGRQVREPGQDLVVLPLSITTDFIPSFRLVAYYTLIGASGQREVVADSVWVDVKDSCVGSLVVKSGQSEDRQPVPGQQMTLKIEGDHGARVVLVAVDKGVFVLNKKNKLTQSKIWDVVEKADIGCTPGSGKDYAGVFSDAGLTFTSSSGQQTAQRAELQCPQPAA
Chain of Human C3b (plasma-purified) (P01024 749-1663 limits assumed, chain 2 of 2): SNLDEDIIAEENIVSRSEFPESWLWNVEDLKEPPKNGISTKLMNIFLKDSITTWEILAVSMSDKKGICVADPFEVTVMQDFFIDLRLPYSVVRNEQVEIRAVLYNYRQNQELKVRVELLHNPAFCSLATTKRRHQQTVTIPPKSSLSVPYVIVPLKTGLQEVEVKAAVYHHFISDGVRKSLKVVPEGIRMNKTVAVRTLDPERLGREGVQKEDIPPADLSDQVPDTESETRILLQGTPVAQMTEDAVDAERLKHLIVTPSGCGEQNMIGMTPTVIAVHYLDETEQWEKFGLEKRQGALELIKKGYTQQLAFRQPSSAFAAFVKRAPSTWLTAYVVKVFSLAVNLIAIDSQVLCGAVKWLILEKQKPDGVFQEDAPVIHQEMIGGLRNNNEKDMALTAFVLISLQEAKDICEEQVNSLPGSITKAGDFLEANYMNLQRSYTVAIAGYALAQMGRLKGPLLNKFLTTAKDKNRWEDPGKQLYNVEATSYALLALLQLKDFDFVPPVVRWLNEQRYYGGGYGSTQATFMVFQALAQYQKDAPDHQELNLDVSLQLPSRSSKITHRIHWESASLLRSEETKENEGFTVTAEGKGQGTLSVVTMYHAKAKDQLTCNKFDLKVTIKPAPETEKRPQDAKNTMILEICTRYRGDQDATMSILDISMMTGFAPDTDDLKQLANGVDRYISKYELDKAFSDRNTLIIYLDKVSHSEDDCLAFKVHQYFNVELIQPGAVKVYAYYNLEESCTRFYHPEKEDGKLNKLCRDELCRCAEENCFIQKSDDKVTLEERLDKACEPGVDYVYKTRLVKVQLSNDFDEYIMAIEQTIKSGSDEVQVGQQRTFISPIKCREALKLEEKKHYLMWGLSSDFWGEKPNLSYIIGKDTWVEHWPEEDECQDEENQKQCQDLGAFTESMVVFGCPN

B1: rCFH-D1119G:PspCN complex (other)
chain 1: EDCNELPPRRNTEILTGSWSDQTYPEGTQAIYKCRPGYRSLGNVIMVCRKGEWVALNPLRKCQKRPCGHPGDTPFGTFTLTGGNVFEYGVKAVYTCNEGYQLLGEINYRECDTDGWTNDIPICEVVKCLPVTAPENGKIVSSAMEPDREYHFGQAVRFVCNSGYKIEGDEEMHCSDDGFWSKEKPKCVEISCKSPDVINGSPISQKIIYKENERFQYKCNMGYEYSERGDAVCTESGWRPLPSCEEKSCDNPYIPNGDYSPLRIKHRTGDEITYQCRNGFYPATRGNTAKCTSTGWIPAPRCTLKPCDYPDIKHGGLYHENMRRPYFPVAVGKYYSYYCDEHFETPSGSYWDHIHCTQDGWSPAVPCLRKCYFPYLENGYNQNYGRKFVQGKSIDVACHPGYALPKAQTTVTCMENGWSPTPRCIRVKTCSKSSIDIENGFISESQYTYALKEKAKYQCKLGYVTADGETSGSITCGKDGWSAQPTCIKSCDIPVFMNARTKNDFTWFKLNDTLDYECHDGYESNTGSTTGSIVCGYNGWSDLPICYERECELPKIDVHLVPDRKKDQYKVGEVLKFSCKPGFTIVGPNSVQCYHFGLSPDLPICKEQVQSCGPPPELLNGNVKEKTKEEYGHSEVVEYYCNPRFLMKGPNKIQCVDGEWTTLPVCIVEESTCGDIPELEHGWAQLSSPPYYYGDSVEFNCSESFTMIGHRSITCIHGVWTQLPQCVAIDKLKKCKSSNLIILEEHLKNKKEFDHNSNIRYRCRGKEGWIHTVCINGRWDPEVNCSMAQIQLCPPPPQIPNSHNMTTTLNYRDGEKVSVLCQENYLIQEGEEITCKDGRWQSIPLCVEKIPCSQPPQIEHGTINSSRSSQESYAHGTKLSYTCEGGFRISEENETTCYMGKWSSPPQCEGLPCKSPPEISHGVVAHMSDSYQYGEEVTYKCFEGFGIDGPAIAKCLGEKWSHPPSCIKTDCLSLPSFENAIPMGEKKDVYKAGEQVTYTCATYYKMDGASNVTCINSRWTGRPTCRDTSCVNPPTVQNAYIVSRQMSKYPSGERVRYQCRSPYEMFGDEEVMCLNGNWTEPPQCKDSTGKCGPPPPIDNGGITSFPLSVYAPASSVEYQCQNLYQLEGNKRITCRNGQWSEPPKCLHPCVISREIMENYNIALRWTAKQKLYSRTGESVEFVCKRGYRLSSRSHTLRTTCWDGKLEYPTCAKR
chain 2: ATENEGSTQAATSSNMAKTEHRKAAKQVVDEYIEKMLREIQLDRRKHTQNVALNIKLSAIKTKYLRELNVLEEKSKDELPSEIKAKLDAAFEKFKKDTLKPGEK
notes: also called PspCN:CFH (D1119G)
Q: Which Kd [1] does the source give for B1 here?
A: 320 nM

B2: Recombinant human CFH, wild-type sequence, from Pichia pastoris (other)
chain: EDCNELPPRRNTEILTGSWSDQTYPEGTQAIYKCRPGYRSLGNVIMVCRKGEWVALNPLRKCQKRPCGHPGDTPFGTFTLTGGNVFEYGVKAVYTCNEGYQLLGEINYRECDTDGWTNDIPICEVVKCLPVTAPENGKIVSSAMEPDREYHFGQAVRFVCNSGYKIEGDEEMHCSDDGFWSKEKPKCVEISCKSPDVINGSPISQKIIYKENERFQYKCNMGYEYSERGDAVCTESGWRPLPSCEEKSCDNPYIPNGDYSPLRIKHRTGDEITYQCRNGFYPATRGNTAKCTSTGWIPAPRCTLKPCDYPDIKHGGLYHENMRRPYFPVAVGKYYSYYCDEHFETPSGSYWDHIHCTQDGWSPAVPCLRKCYFPYLENGYNQNYGRKFVQGKSIDVACHPGYALPKAQTTVTCMENGWSPTPRCIRVKTCSKSSIDIENGFISESQYTYALKEKAKYQCKLGYVTADGETSGSITCGKDGWSAQPTCIKSCDIPVFMNARTKNDFTWFKLNDTLDYECHDGYESNTGSTTGSIVCGYNGWSDLPICYERECELPKIDVHLVPDRKKDQYKVGEVLKFSCKPGFTIVGPNSVQCYHFGLSPDLPICKEQVQSCGPPPELLNGNVKEKTKEEYGHSEVVEYYCNPRFLMKGPNKIQCVDGEWTTLPVCIVEESTCGDIPELEHGWAQLSSPPYYYGDSVEFNCSESFTMIGHRSITCIHGVWTQLPQCVAIDKLKKCKSSNLIILEEHLKNKKEFDHNSNIRYRCRGKEGWIHTVCINGRWDPEVNCSMAQIQLCPPPPQIPNSHNMTTTLNYRDGEKVSVLCQENYLIQEGEEITCKDGRWQSIPLCVEKIPCSQPPQIEHGTINSSRSSQESYAHGTKLSYTCEGGFRISEENETTCYMGKWSSPPQCEGLPCKSPPEISHGVVAHMSDSYQYGEEVTYKCFEGFGIDGPAIAKCLGEKWSHPPSCIKTDCLSLPSFENAIPMGEKKDVYKAGEQVTYTCATYYKMDGASNVTCINSRWTGRPTCRDTSCVNPPTVQNAYIVSRQMSKYPSGERVRYQCRSPYEMFGDEEVMCLNGNWTEPPQCKDSTGKCGPPPPIDNGDITSFPLSVYAPASSVEYQCQNLYQLEGNKRITCRNGQWSEPPKCLHPCVISREIMENYNIALRWTAKQKLYSRTGESVEFVCKRGYRLSSRSHTLRTTCWDGKLEYPTCAKR
notes: also called rCFH; CFH (wt)
Q: For B2, which Kd [1] is on record?
A: 580 nM

B3: rCFH:PspCN complex (other)
chain 1: EDCNELPPRRNTEILTGSWSDQTYPEGTQAIYKCRPGYRSLGNVIMVCRKGEWVALNPLRKCQKRPCGHPGDTPFGTFTLTGGNVFEYGVKAVYTCNEGYQLLGEINYRECDTDGWTNDIPICEVVKCLPVTAPENGKIVSSAMEPDREYHFGQAVRFVCNSGYKIEGDEEMHCSDDGFWSKEKPKCVEISCKSPDVINGSPISQKIIYKENERFQYKCNMGYEYSERGDAVCTESGWRPLPSCEEKSCDNPYIPNGDYSPLRIKHRTGDEITYQCRNGFYPATRGNTAKCTSTGWIPAPRCTLKPCDYPDIKHGGLYHENMRRPYFPVAVGKYYSYYCDEHFETPSGSYWDHIHCTQDGWSPAVPCLRKCYFPYLENGYNQNYGRKFVQGKSIDVACHPGYALPKAQTTVTCMENGWSPTPRCIRVKTCSKSSIDIENGFISESQYTYALKEKAKYQCKLGYVTADGETSGSITCGKDGWSAQPTCIKSCDIPVFMNARTKNDFTWFKLNDTLDYECHDGYESNTGSTTGSIVCGYNGWSDLPICYERECELPKIDVHLVPDRKKDQYKVGEVLKFSCKPGFTIVGPNSVQCYHFGLSPDLPICKEQVQSCGPPPELLNGNVKEKTKEEYGHSEVVEYYCNPRFLMKGPNKIQCVDGEWTTLPVCIVEESTCGDIPELEHGWAQLSSPPYYYGDSVEFNCSESFTMIGHRSITCIHGVWTQLPQCVAIDKLKKCKSSNLIILEEHLKNKKEFDHNSNIRYRCRGKEGWIHTVCINGRWDPEVNCSMAQIQLCPPPPQIPNSHNMTTTLNYRDGEKVSVLCQENYLIQEGEEITCKDGRWQSIPLCVEKIPCSQPPQIEHGTINSSRSSQESYAHGTKLSYTCEGGFRISEENETTCYMGKWSSPPQCEGLPCKSPPEISHGVVAHMSDSYQYGEEVTYKCFEGFGIDGPAIAKCLGEKWSHPPSCIKTDCLSLPSFENAIPMGEKKDVYKAGEQVTYTCATYYKMDGASNVTCINSRWTGRPTCRDTSCVNPPTVQNAYIVSRQMSKYPSGERVRYQCRSPYEMFGDEEVMCLNGNWTEPPQCKDSTGKCGPPPPIDNGDITSFPLSVYAPASSVEYQCQNLYQLEGNKRITCRNGQWSEPPKCLHPCVISREIMENYNIALRWTAKQKLYSRTGESVEFVCKRGYRLSSRSHTLRTTCWDGKLEYPTCAKR
chain 2: ATENEGSTQAATSSNMAKTEHRKAAKQVVDEYIEKMLREIQLDRRKHTQNVALNIKLSAIKTKYLRELNVLEEKSKDELPSEIKAKLDAAFEKFKKDTLKPGEK
notes: also called CFH (wt):PspCN
Q: B3 was tested. Which Kd [1] did it give?
A: 160 nM

B4: Recombinant human CFH (D1119G) from Pichia pastoris (other)
chain: EDCNELPPRRNTEILTGSWSDQTYPEGTQAIYKCRPGYRSLGNVIMVCRKGEWVALNPLRKCQKRPCGHPGDTPFGTFTLTGGNVFEYGVKAVYTCNEGYQLLGEINYRECDTDGWTNDIPICEVVKCLPVTAPENGKIVSSAMEPDREYHFGQAVRFVCNSGYKIEGDEEMHCSDDGFWSKEKPKCVEISCKSPDVINGSPISQKIIYKENERFQYKCNMGYEYSERGDAVCTESGWRPLPSCEEKSCDNPYIPNGDYSPLRIKHRTGDEITYQCRNGFYPATRGNTAKCTSTGWIPAPRCTLKPCDYPDIKHGGLYHENMRRPYFPVAVGKYYSYYCDEHFETPSGSYWDHIHCTQDGWSPAVPCLRKCYFPYLENGYNQNYGRKFVQGKSIDVACHPGYALPKAQTTVTCMENGWSPTPRCIRVKTCSKSSIDIENGFISESQYTYALKEKAKYQCKLGYVTADGETSGSITCGKDGWSAQPTCIKSCDIPVFMNARTKNDFTWFKLNDTLDYECHDGYESNTGSTTGSIVCGYNGWSDLPICYERECELPKIDVHLVPDRKKDQYKVGEVLKFSCKPGFTIVGPNSVQCYHFGLSPDLPICKEQVQSCGPPPELLNGNVKEKTKEEYGHSEVVEYYCNPRFLMKGPNKIQCVDGEWTTLPVCIVEESTCGDIPELEHGWAQLSSPPYYYGDSVEFNCSESFTMIGHRSITCIHGVWTQLPQCVAIDKLKKCKSSNLIILEEHLKNKKEFDHNSNIRYRCRGKEGWIHTVCINGRWDPEVNCSMAQIQLCPPPPQIPNSHNMTTTLNYRDGEKVSVLCQENYLIQEGEEITCKDGRWQSIPLCVEKIPCSQPPQIEHGTINSSRSSQESYAHGTKLSYTCEGGFRISEENETTCYMGKWSSPPQCEGLPCKSPPEISHGVVAHMSDSYQYGEEVTYKCFEGFGIDGPAIAKCLGEKWSHPPSCIKTDCLSLPSFENAIPMGEKKDVYKAGEQVTYTCATYYKMDGASNVTCINSRWTGRPTCRDTSCVNPPTVQNAYIVSRQMSKYPSGERVRYQCRSPYEMFGDEEVMCLNGNWTEPPQCKDSTGKCGPPPPIDNGGITSFPLSVYAPASSVEYQCQNLYQLEGNKRITCRNGQWSEPPKCLHPCVISREIMENYNIALRWTAKQKLYSRTGESVEFVCKRGYRLSSRSHTLRTTCWDGKLEYPTCAKR
notes: also called rCFH-D1119G; rCFH (D1119G)
Q: How did the Kd [1] turn out when B4 was run?
A: 540 nM

B5: PspC (62-140) (other)
chain: KQVVDEYIEKMLREIQLDRRKHTQNVALNIKLSAIKTKYLRELNVLEEKSKDELPSEIKAKLDAAFEKFKKDTLKPGEK
Q: Which Kd [2] does the source give for B5 here?
A: ~0.05 pM

B6: sPspCNR1 (N-terminally hexaHis-SUMO-tagged PspC residues 37-292, strain D39, including the R1 domain) (other)
chain: ATENEGSTQAATSSNMAKTEHRKAAKQVVDEYIEKMLREIQLDRRKHTQNVALNIKLSAIKTKYLRELNVLEEKSKDELPSEIKAKLDAAFEKFKKDTLKPGEKVAEAKKKVEEAKKKAEDQKEEDRRNYPTNTYKTLELEIAEFDVKVKEAELELVKEEAKESRNEGTIKQAKEKVESKKAEATRLENIKTDRKKAEEEAKRKADGKLKEANVATSDQGKPKGRAKRGVPGELATPDKKENDAKSSDSSVGEETL
notes: not shown: N-terminal hexaHis-SUMO tag from the pE-SUMOpro Kan vector
Q: Does B6 bind [3]?
A: binds

B7: PspC (37-120) (other)
chain: ATENEGSTQAATSSNMAKTEHRKAAKQVVDEYIEKMLREIQLDRRKHTQNVALNIKLSAIKTKYLRELNVLEEKSKDELPSEIK
Q: With B7 as the binder, how does the “decrease in binding affinity against PspCN (37-140)” value (shortened to “decrease in binding affinity”) [4] read?
A: ≥ 3 orders of magnitude

B8: PspC (37-110) (other)
chain: ATENEGSTQAATSSNMAKTEHRKAAKQVVDEYIEKMLREIQLDRRKHTQNVALNIKLSAIKTKYLRELNVLEEK
Q: Which “decrease in binding affinity” value [4] does the source give for B8 here?
A: ≥ 3 orders of magnitude

B9: SUMO (fusion partner alone) (other, UniProt Q12306 3-98, looked up)
chain: DSEVNQEAKPEVKPEVKPETHINLKVSDGSSEIFFKIKKTTPLRRLMEAFAKRQGKEMDSLRFLYDGIRIQADQTPEDLDMEDNDIIEAHREQIGG
Q: Does B9 bind [3]?
A: no binding

B10: PspC (37-130) (other)
chain: ATENEGSTQAATSSNMAKTEHRKAAKQVVDEYIEKMLREIQLDRRKHTQNVALNIKLSAIKTKYLRELNVLEEKSKDELPSEIKAKLDAAFEKF
Q: Which “decrease in binding affinity” value [4] does the source give for B10 here?
A: ≥ 3 orders of magnitude
